Laboratory results from the supplement of paper PMC10567573.

B1: POMT2 (parent)
chain: VKYNSCADRPFSAPWWFWLSLTGV
B2: WDR88 (parent)
chain: LLTITKAHSNAISNCCFTFSGHFL
B3: RSPH3 (parent)
chain: FIPAKTGKDVATQILEGELFDFDL

Variants of: B1
Assay: protein stability index of a GFP-peptide fusion (GPS, HEK-293T) (PSI 1-6); higher = more stable
Conditions: c terminus: a fixed tail appended
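Note: lentivirally expressed fusions sorted by FACS into six bins by GFP to DsRed ratio, PSI derived from sequencing read proportions per bin multiplied by bin number.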

Row | Variant | protein stability index
1 | A13E | 2.18
2 | A13R | 1
3 | A13S | 2.06
4 | A13H | 1.18
5 | A13G | 2.11
6 | P14Y | 1.21
7 | P14R | 3.92
8 | P14V | 2.71
9 | P14A | 2.21
10 | P14C | 2.27
11 | P14F | 1.35
12 | P14G | 2.4
13 | F17K | 2.65
14 | F17W | 1.33
15 | F17T | 3.3
16 | F17V | 2.16
17 | D8I | 3.67
18 | D8G | 2.4
19 | D8L | 3
20 | D8P | 3.01
21 | D8Y | 2.29
22 | D8R | 3.03
23 | D8W | 1.26
24 | D8S | 2.54
25 | D8T | 3.21
26 | P10A | 2.24

Row | Variant | protein stability index
27 | P10E | 1.63
28 | P10K | 4.18
29 | P10L | 2.5
30 | P10M | 1.94
31 | W18G | 3.3
32 | W18Y | 2.04
33 | W18C | 2.54
34 | W18S | 3.44
35 | W18T | 3.52
36 | W18V | 2.56
37 | W18A | 2.22
38 | A7Y | 1.39
39 | S20L | 1.47
40 | S20Y | 2.25
41 | S20F | 1.04
42 | S20I | 2.08
43 | S20M | 3.17
44 | S20H | 2.9
45 | S20C | 2.22
46 | V24Y | 2.1
47 | V24L | 5.16
48 | V24I | 2.98
49 | V24R | 1.87
50 | V24A | 2.85
51 | V24E | 1
52 | V24T | 1.5

Row | Variant | protein stability index
53 | V24N | 1.81
54 | V24M | 2.61
55 | F11G | 2.84
56 | F11S | 1
57 | S12A | 3.27
58 | S12I | 3.2
59 | S12F | 2.65
60 | V1A | 3.3
61 | V1H | 1.1
62 | V1C | 2.99
63 | V1R | 1.98
64 | V1L | 1.66
65 | L21K | 1.12
66 | L21P | 2.68
67 | L21N | 2.88
68 | L21A | 3.62
69 | W16V | 2.01
70 | W16T | 3.23
71 | W16Q | 1.78
72 | W16D | 3.79
73 | W16P | 2.08
74 | W16I | 3.2
75 | W16L | 1.8
76 | T22A | 1.62
77 | T22I | 1.56
78 | T22K | 2.12

Row | Variant | protein stability index
79 | T22V | 3.31
80 | T22N | 1.29
81 | C6G | 1.73
82 | C6T | 1.92
83 | C6S | 2.14
84 | C6L | 2.11
85 | C6W | 1
86 | C6N | 1.02
87 | C6D | 2.84
88 | C6I | 2.36
89 | Y3D | 2.19
90 | Y3P | 2.55
91 | Y3Q | 1.41
92 | Y3K | 2.11
93 | K2R | 2.2
94 | K2T | 1.61
95 | K2N | 2.4
96 | K2F | 2.75
97 | K2Y | 3.34
98 | N4E | 3.12
99 | N4T | 3.25
100 | N4V | 3.46
101 | S5D | 4.19
102 | S5A | 4.07
103 | S5P | 2.39
104 | R9N | 3.39

Row | Variant | protein stability index
105 | R9F | 3.16
106 | R9W | 3.34
107 | R9A | 2.8
108 | R9G | 3.51
109 | R9L | 2
110 | R9I | 3.57
111 | L19F | 2.95
112 | L19E | 1.65
113 | L19N | 2.79
114 | L19T | 1.64
115 | L19I | 1.76
116 | G23F | 2.65
117 | G23S | 1.47
118 | G23N | 1.69
119 | G23T | 2.04
120 | G23W | 1.21
121 | G23E | 5.35
122 | G23M | 1.55
123 | G23C | 1.24
124 | G23Q | 4.6
125 | G23V | 2.98
126 | G23I | 2.22
127 | G23A | 1.77
128 | W15E | 3.49
129 | W15H | 2.54
130 | W15K | 3.58

Variants of: B2
Assay: as above
Conditions: c terminus: a fixed tail appended

Row | Variant | protein stability index
131 | L1E | 1.76
132 | L1I | 4.01
133 | L1Y | 4.04
134 | L1V | 2.93
135 | L1F | 2.52
136 | L1S | 1.76
137 | L1K | 1.85
138 | L1M | 1.95
139 | L1H | 2.46
140 | L1Q | 1.59
141 | L1W | 3.03
142 | L1N | 2.47
143 | L1T | 3.09
144 | L1G | 1.49
145 | L1P | 2.81
146 | L1R | 2.75
147 | L1C | 2.81
148 | L1D | 1.67
149 | L1A | 3.61
150 | I4L | 2.9
151 | I4Y | 2.38
152 | I4C | 2.19
153 | I4G | 1.9
154 | I4S | 2.5
155 | I4E | 1.99
156 | I4F | 3.68

Row | Variant | protein stability index
157 | I4V | 3.9
158 | I4D | 3.07
159 | I4Q | 1.8
160 | I4N | 2.89
161 | I4R | 2.4
162 | I4P | 2.15
163 | I4M | 3.12
164 | I4T | 2.8
165 | I4K | 2.5
166 | I4A | 2.47
167 | I4H | 2.36
168 | L2M | 2.53
169 | L2H | 2.28
170 | L2F | 2.44
171 | L2Q | 2.75
172 | L2D | 1.4
173 | L2K | 2.85
174 | L2W | 3.22
175 | L2E | 1.57
176 | L2V | 2.33
177 | L2P | 2.12
178 | L2Y | 2.1
179 | L2I | 3.28
180 | L2T | 2.71
181 | L2A | 3.15
182 | L2C | 2.18

Row | Variant | protein stability index
183 | L2N | 2.82
184 | L2R | 2.41
185 | L2S | 2.4
186 | L2G | 2.01
187 | T5H | 2.9
188 | T5Y | 3.34
189 | T5L | 2.03
190 | T5C | 2.54
191 | T5R | 2.72
192 | T5P | 2.98
193 | T5M | 3.85
194 | T5A | 3.41
195 | T5Q | 1.69
196 | T5E | 2.58
197 | T5G | 2.73
198 | T5K | 2.37
199 | T5S | 3.33
200 | T5V | 3.03
201 | T5I | 2.02
202 | T5F | 4.83
203 | T5N | 1.67
204 | T5D | 1.65
205 | T3M | 3.13
206 | T3D | 2.61
207 | T3H | 2.57
208 | T3W | 2.29

Row | Variant | protein stability index
209 | T3S | 3.22
210 | T3F | 3.14
211 | T3I | 2.74
212 | T3C | 2.84
213 | T3Q | 3.3
214 | T3P | 2.97
215 | T3A | 2.93
216 | T3G | 1.94
217 | T3E | 2.47
218 | T3V | 3.68
219 | T3L | 2.37
220 | T3Y | 2.92
221 | T3N | 3
222 | A7N | 2.1
223 | A7M | 2.8
224 | A7K | 2.4
225 | A7Q | 3.22
226 | A7S | 2.54
227 | A7V | 2.76
228 | A7R | 3.62
229 | A7F | 2.86
230 | A7P | 2.04
231 | A7C | 2.75
232 | A7E | 3.31
233 | A7I | 2.95
234 | A7H | 3.42

Row | Variant | protein stability index
235 | A7D | 1.86
236 | A7G | 3.76
237 | A7L | 3.04
238 | A7T | 2.58
239 | K6L | 3.35
240 | K6F | 3.35
241 | K6T | 2.78
242 | K6Y | 1.83
243 | K6E | 2.67
244 | K6C | 2.9
245 | K6A | 2.8
246 | K6M | 2.66
247 | K6D | 1.83
248 | K6I | 2.88
249 | K6P | 3.02
250 | K6G | 2.44
251 | K6R | 2.72
252 | K6Q | 2.29
253 | K6V | 2.84
254 | K6S | 2.44
255 | K6N | 3.18
256 | K6H | 3.03
257 | K6W | 3.12

Variants of: B3
Assay: as above
Conditions: c terminus: a fixed tail appended

Row | Variant | protein stability index
258 | F20Y | 2.01
259 | D23S | 2
260 | D23I | 1.24
261 | D23A | 2.12
262 | D23R | 1.42
263 | D23P | 2.08
264 | D23T | 2.24
265 | D23E | 1.89
266 | D23V | 1.59
267 | D23Q | 1.99
268 | D23N | 1.84
269 | D23M | 1.42
270 | D23F | 1.34
271 | D23H | 1.87
272 | D23C | 2.08
273 | D23L | 1.98
274 | D23G | 2.02
275 | D23W | 2.51
276 | D23Y | 2.24
277 | D23K | 2.12
278 | F22R | 2.42
279 | F22Y | 2.12
280 | F22D | 3.7
281 | F22Q | 2.84
282 | F22S | 2.86
283 | F22A | 2.31

Row | Variant | protein stability index
284 | F22L | 1.98
285 | F22H | 2.56
286 | F22T | 2.67
287 | F22P | 1.82
288 | F22M | 2.54
289 | F22I | 1.68
290 | F22G | 2.81
291 | F22K | 2.74
292 | F22W | 1.91
293 | F22E | 3.2
294 | F22C | 1.84
295 | F22V | 2.21
296 | F22N | 2.87
297 | D21R | 1.8
298 | D21E | 1.49
299 | D21F | 2.45
300 | D21T | 3.06
301 | D21K | 1.96
302 | D21P | 2.47
303 | D21I | 2.72
304 | D21H | 1.79
305 | D21V | 1.66
306 | D21Y | 2.78
307 | D21C | 2.71
308 | D21L | 3
309 | D21W | 3.1

Row | Variant | protein stability index
310 | D21M | 2.98
311 | D21N | 1.53
312 | D21A | 2.33
313 | D21Q | 1.53
314 | D21G | 2.24
315 | D21S | 2.54
316 | L24E | 2.78
317 | L24Y | 1.75
318 | L24M | 2.23
319 | L24N | 2.43
320 | L24A | 2.67
321 | L24V | 1.85
322 | L24G | 2.75
323 | L24H | 2.68
324 | L24I | 2
325 | L24D | 3.04
326 | L24S | 2.36
327 | L24F | 1.95
328 | L24T | 2.39
329 | L24C | 2.36
330 | L24W | 3.71
331 | L24R | 2.31
332 | L24P | 2.47
333 | L24Q | 2.7
334 | L24K | 2.79
